Drawing on article PMC9250616, this text covers Kd for three substances.

Read-outs that look alike come from different tables or passages of the source.

One assay addresses Laminin-111. Put plainly: ELISA. (In general: In an ELISA, binding on a coated surface is turned into a signal by an enzyme label.)
Assay [1] concerns the target Protective antigen (Bacillus anthracis) (UniProt P13423). The settings on record: cited from earlier work.
Assay [2] shares this target. Conditions: cited from earlier work. The source holds these as a separate data set.

For the substance “biotinylated CMG2-AviTag construct (capillary morphogenesis gene 2, anthrax toxin receptor 2) (from UniProt P58335 34-489)”, in the assay with Laminin-111, the Kd (usually the constant that tells how readily two partners part at equilibrium) turned out to be 0.5 µM.

With TEM8 (from UniProt Q9H6X2), the Kd in assay [1] was 0.01 µM.

For the substance CMG2 (from UniProt P58335), the Kd in assay [2] was 0.0002 µM.
